Data on three molecules can be found in patent publication US20250346655 (published 2025).

For one assay, the target named is alpha-synuclein monomer (human, UniProt P37840). Description: SPR. (SPR reads the build-up and loss of mass on a sensor chip optically.)
In assay [1] the target is alpha-synuclein physiologic tetramer (human, UniProt P37840). Description: SPR.
For a further assay, the target named is gamma-synuclein monomer (human, UniProt O76070). Briefly: ELISA.
Another assay deals with alpha-synuclein oligomer (human, UniProt P37840). Briefly: SPR.
A further assay deals with beta-synuclein monomer (human, UniProt Q16143). Briefly: ELISA. Background: In an ELISA, binding on a coated surface is turned into a signal by an enzyme label.
Assay [2] has as its target alpha-synuclein sonicated fibrils (human, UniProt P37840). Briefly: SPR.

By Kd is commonly meant a measure of binding affinity in units of concentration. High values mean a looser complex, low ones a tighter complex.

Chain of gamma-synuclein monomer (O76070 whole entry): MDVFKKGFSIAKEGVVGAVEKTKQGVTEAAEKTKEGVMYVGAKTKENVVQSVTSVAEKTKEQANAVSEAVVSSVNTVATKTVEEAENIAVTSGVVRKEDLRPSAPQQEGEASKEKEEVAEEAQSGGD
Chain of beta-synuclein monomer (Q16143 whole entry): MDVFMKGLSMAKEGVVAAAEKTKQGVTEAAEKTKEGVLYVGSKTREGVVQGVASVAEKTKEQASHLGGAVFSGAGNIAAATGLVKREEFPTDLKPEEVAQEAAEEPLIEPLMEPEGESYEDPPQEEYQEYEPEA

B1: 2E9 (antibody, V domains shown)
VH: EVKLLESGGGLVQPGGSLKLSCAASGFDFSRYWMNWVRQAPGKGLEWIGEINPHSSTINYAPSLKDKFIISRDNAKNTLYLQMSKVRSEDTALYYCGRGDYVDYWGLGTTLTVSS
VL: DIVMSQSPSSLAVSVGEKVTMSCKSSQSLLYSRNQKNYLAWYQQKPGQSPKLLIYWASTRESGVPDRFTGSGSGTDFTLTISSVKADDLAVYYCQQYYSYPRTFGGGTKLEIK
With B1, the binding result (with alpha-synuclein monomer; in assay [1]; with gamma-synuclein monomer; in the assay with beta-synuclein monomer) was “no binding” in each case. Besides, the figures for the Kd (in the assay with alpha-synuclein oligomer; in assay [2]) were 431 nM and 9 nM, respectively.

B2: 12B12 (antibody, V domains shown)
VH: EVQLQQSGAELVKPGASVKLSCTASGFNIKDTYIHWVKQRPEQGLEWIGRIDPANGNTNYDPKFQDKATITADTSSNTAYLQFSSLTSEDTAVYYCSNWDYFDYWGQGTTLTVSS
VL: not shown
In the case of B2, the binding result (with alpha-synuclein monomer; in assay [1]) was “no binding” each time. The Kd was found to be 985 nM with alpha-synuclein oligomer and 8 nM in assay [2].

B3: 12G1 (antibody, V domains shown)
VH: QIQLVQSGPELRKPGETVRISCKASGYTFTTAGMQWVQKMPGKGLKWIGWINTHSGVPKYAEDFKGRFAFSLETSASTAYLQISNLKNEDTATYFCARTSWAPYWGQGTLVTVSA
VL: not shown
For B3, the binding result (with alpha-synuclein monomer; in assay [1]) was “no binding” in each case. Further, the Kd turned out to be 1610 nM with alpha-synuclein oligomer and 20 nM in assay [2].
